Measurements taken from patent publication US20170240920A1 (UCL BUSINESS, published 2017).
No end group written: not given here.

Molecular target: T1, Streptavidin (Streptomyces avidinii, UniProt P22629 37-163, limits assumed)
T1 construct: The same protein was used as APC conjugate (flow cytometry) and on beads (sorting, virus capture); also called Streptavidin-APC; Streptavidin conjugated to Allophycocyanin
Assay: flow cytometry, Streptavidin-APC staining of transfected 293T cells

T1 sequence (P22629 37-163 limits assumed): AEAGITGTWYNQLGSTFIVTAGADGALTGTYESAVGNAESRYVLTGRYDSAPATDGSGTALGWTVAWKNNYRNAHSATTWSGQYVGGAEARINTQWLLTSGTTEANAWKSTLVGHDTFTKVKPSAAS

B1: StreptagII-d8-x2 on a GPI anchor (other)
chain: WSHPQFEKSGGGGSPAPRPPTPAPTIASWSHPQFEK
modifications: also: GPI anchor at C-terminal side, attached after further residues not given here
notes: Two copies of the tag separated by a CD8-based linker; expressed on the surface of transfected HEK 293T cells; also called StreptagII GPI (x2); Streptagll-d8-x2; not shown: residues between the second tag and the GPI attachment site
B1: binds.

B2: Flankedccstreptag-d8-x2-GPI (other)
chain: ECHPQGPPCIEGRKSSGGGGSPAPRPPTPAPTIASECHPQGPPCIEGRKS
modifications: cysteine pairing not given here; also: GPI anchor at C-terminal side, attached after further residues not given here
notes: Two copies of the tag separated by a CD8-based linker; also called MP13024; Flankedccstreptag GPI (x2); not shown: residues between the second tag and the GPI attachment site
B2: binds.
